# Several values for one entry are separate records, joined by “and”; a condition that tells them apart may be missing. Identical values can stand only once.
# T1: human LAG-3-his (human, UniProt P18627 23-422)
# T1 construct: range 23-422; also called hLAG-3-his; hLAG-3
# T1 sequence: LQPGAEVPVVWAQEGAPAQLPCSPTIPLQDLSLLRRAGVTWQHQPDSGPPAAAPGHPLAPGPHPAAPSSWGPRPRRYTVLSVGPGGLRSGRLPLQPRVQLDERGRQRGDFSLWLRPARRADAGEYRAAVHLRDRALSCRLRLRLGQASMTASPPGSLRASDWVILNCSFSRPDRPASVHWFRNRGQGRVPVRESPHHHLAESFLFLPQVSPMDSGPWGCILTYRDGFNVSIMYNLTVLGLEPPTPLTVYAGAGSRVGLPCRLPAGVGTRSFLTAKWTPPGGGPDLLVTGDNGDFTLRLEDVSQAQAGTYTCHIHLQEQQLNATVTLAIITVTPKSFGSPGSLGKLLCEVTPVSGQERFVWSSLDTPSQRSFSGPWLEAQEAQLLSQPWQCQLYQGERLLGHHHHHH
# T2: bio-LAG3-mFc (human, UniProt P18627 23-450, biotin-labelled)
# T2 construct: also called hLAG-3
# T2 sequence (looked up): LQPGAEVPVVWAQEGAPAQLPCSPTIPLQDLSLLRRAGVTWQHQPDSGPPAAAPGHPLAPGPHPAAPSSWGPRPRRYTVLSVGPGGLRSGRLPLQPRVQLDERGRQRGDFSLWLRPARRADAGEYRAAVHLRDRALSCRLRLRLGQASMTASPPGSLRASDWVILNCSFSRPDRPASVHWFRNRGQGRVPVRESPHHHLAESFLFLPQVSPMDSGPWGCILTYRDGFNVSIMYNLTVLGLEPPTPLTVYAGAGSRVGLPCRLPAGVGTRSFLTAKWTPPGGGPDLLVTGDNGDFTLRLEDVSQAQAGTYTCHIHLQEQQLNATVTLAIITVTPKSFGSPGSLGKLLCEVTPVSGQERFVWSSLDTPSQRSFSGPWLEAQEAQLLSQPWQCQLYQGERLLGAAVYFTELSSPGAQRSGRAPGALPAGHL
# Key:
# cyno-LAG3-hFc = target: T3, cyno-LAG3-hFc (cynomolgus monkey); test: ELISA
# T3 construct: Bought product; also called cynomolgus monkey LAG-3
# human LAG-3-his [1] = target: T1, human LAG-3-his; test: ELISA
# Protocol: (§1) After discarding the liquid, a blocking solution of 5% skimmed milk (Bright skimmed milk powder) diluted with PBS was added at 230 μl per well, followed by incubating at 37° C. for 3 hours or 4° C. overnight (16-18 hours) for blocking. Subsequently, the blocking solution was discarded, and the micropiate was washed 5 times with PBST buffer (pH 7.4 PBS containing 0.05% tweeen-20). Then 50 μl/well of the supernatant (containing the antibody to be tested) or a starting concentration of 10 μg/ml of the antibody to be tested, which was diluted 5 times in gradient, was added, followed by incubating the mixture for 1 hour at 37° C. […] After washing the microplate 5 times with PBST, 50 μl/well TIMB chromogenic substrate (KPL, Cat. No.: 52-00-03) was added, and then incubated for […] at room temperature. Finally, 50 μl/well of 1 M H₂SO₄ was added to stop the reaction. The absorbance value at 450 nm was read by […] GO microplate reader (ThermoFisher, Cat. No.: 51119200). The clones with high affinity were selected according to the OD value or the EC₅₀ value was calculated (for antibodies with known concentrations).
# human LAG-3-his [2] = target: T1, human LAG-3-his; test: ELISA on hLAG-3
# Protocol: as §1
# bio-LAG3-mFc [3] = target: T2, bio-LAG3-mFc; test: blocking ELISA, LAG-3 on Daudi cells
# bio-LAG3-mFc [4] = target: T2, bio-LAG3-mFc; test: blocking ELISA, LAG-3 on Daudi cells; remark: listed apart in the source
# bio-LAG3-mFc [5] = target: T2, bio-LAG3-mFc; test: blocking ELISA, LAG-3 on Daudi cells; remark: listed apart in the source
# human LAG-3-his [6] = target: T1, human LAG-3-his; test: ELISA on human LAG-3, same experiment
# bio-LAG3-mFc [7] = target: T2, bio-LAG3-mFc; test: blocking of LAG3 binding to Daudi cells, same experiment
# Protocol: The Daudi cell line (ATCC, CCL-213) was expanded and seeded into 96-well microplate at a density of 2×10⁵ cells/well, and then centrifuged at 1600 rpm for 10 min; thereafter the cells were fixed with 100 μl/well of a fixative solution for immunostaining (Shanghai Beyotime Biotechnology Co., Ltd., Cat. No.: P0098) for half an hour at room temperature. After washing with PBS (BasalMedia Biology, Cat. No.: B320) once, 5% milk was added with 230 μl per well, and the microplate was incubated for 2 hours at 37° C. for blocking, then was washed three times with PBST. […] The microplate was then incubated for 1 hour at 37° C. and washed 5 times with PBST. 50 μl/well of 1:1000 diluted streptavidin-HRP secondary antibody (GenScript, Cat. No.: M00091) was added to the microplate and incubated for 1 hour at 37° C. After washing the microplate 5 times with PBST, 50 μl/well TMB (Surmodic, Cat. No.: TTMB-1000-01) was added to the microplate for color development, and 50 μl/well 1M H₂SO₄ was added to stop the reaction. The microplate was then read by a microplate reader (MuitiskanGo Thermo, model 511919200), and the data were analyzed using GraphPad prism 5.
# human LAG-3-his [8] = target: T1, human LAG-3-his; test: Biacore T200, antibody captured on Protein A, LAG-3-his in solution
# Protocol: First, Protein A (Thermo Pierce, Cat. No.: 21181) was coupled to the biosensor chip CMS (GE, Cat. No.: BR-4005-30) using pH 7.4 running buffer HBS-EP+ (10 mM HEPES, 150 mM NaCl, 3 mM EDTA, and 0.05% P20). The chip was activated with a freshly prepared 50 mM NHS (N-hydroxysuccinimide) and 200 mM EDC (1-ethyl-3-(3-dimethylaminopropyl) carbodiimide hydrochloride) followed by injection of 10 μg/ml Protein A prepared with 10 mM NaAc (pH4.0). […] The flow rate was […], binding time was 180 s, and dissociation time was 300 s, After the experiment, the chip was washed for 30 s with 10 mM Glycine-HCl (pH 1.5) at a flow rate of 30 μl/min. The experimental data were fitted with the 1:1 Langmuir model using the software of Biacore T200 evaluation version 3.0 (GE), and the value of affinity KD was obtained.
# human LAG-3-his [9] = target: T1, human LAG-3-his; test: ELISA on coated human LAG-3, OD450 (Example 3, Example 13) [panel a]
Binder,fold weaker than binding to human LAG-3 (cyno-LAG3-hFc) [times],EC50 (human LAG-3-his [1]) [nM],EC50 (human LAG-3-his [2]) [nM],fold stronger blocking activity than Ref (bio-LAG3-mFc [3]) [times],IC50 (bio-LAG3-mFc [4]) [nM],IC50 (bio-LAG3-mFc [5]) [nM],EC50 (human LAG-3-his [6]),IC50 (bio-LAG3-mFc [7]),Kd (human LAG-3-his [8]) [nM],EC50 (read off the curve) (human LAG-3-his [9]) [nM]
"humanized anti-human LAG-3 antibody Ab2317 (antibody, human IgG4 S228P, kappa, V domains shown, LG2317 / LG2343, human kappa / hIgG4) VH: QVQLVQSGAEVKKPGASVKVSCKASGYTFTDYEMHWVKQAPGQGLEWIGGIDPETEGIAYNQKFRGRATLTADKSTSTAYMELRSLRSDDTAVYYCTNSNYYGGREAWFAYWGQGTLVTVSS VL: DIQMTQSPSSLSASVGDRVTITCRASQDIGSSLNWYQQKPGKAPKRLIYATSSLDSGVPSRFSGSRSGSDFTLTISSLQPEDFATYYCLQYVTSPLTFGGGTKVEIKR",> 200,0.16,0.119,≥ 2,1.64,2.7,0.287 nM and 0.579 nM and 0.44 nM,9.78 nM and 28 nM,0.168,~0.3
"humanized antibody Ab2325 (antibody, human IgG4 S228P, kappa, V domains shown, LG2317 / LG2348, human kappa / hIgG4) VH: QVQLVQSGAEVKKPGASVKVSCKASGYTFTDYEMHWVKQAPGQGLEWMGGIDPETEGIAYNQKFRGRATMTTDTSTSTAYMELRSLRSDDTAVYYCANSNYYGGREAWFAYWGQGTLVTVSS VL: DIQMTQSPSSLSASVGDRVTITCRASQDIGSSLNWYQQKPGKAPKRLIYATSSLDSGVPSRFSGSRSGSDFTLTISSLQPEDFATYYCLQYVTSPLTFGGGTKVEIKR",> 200,0.19,0.142,–,1.76,3.6,0.312 nM,–,0.19,–

# — patent US20220340657A1 (L AND L BIO CO LTD NINGBO CHINA, published 2022)
